# Results from article PMC6050581 (ACS infectious diseases, 2018).
# B1: leukotoxin (LtxA) of Aggregatibacter actinomycetemcomitans (natural protein)
# chain: MATTTLPNTKQQAAQFANSVADRAKENIDAAKEQLQKALDKLGKTGKKLTLYIPKNYKKGNGLTALIKAAQKLGIEVYHEGKDGPALTNGILNTGKKLLGLTERGLTLFAPELDKWIQGNKHLSNSVGSTGNLTKAIDKVQSVLGTLQAFLNTAFSGMDLDALIKARQNGKNVTDVQLAKASLNLINELIGTISSITNNVDTFSKQLNKLGEALGQVKHFGSFGDKLKNLPKLGNLGKGLGALSGVLSAISAALLLANKDADTATKAAAAAELTNKVLGNIGKAITQYLIAQRAAAGLSTTGPVAGLIASVVSLAISPLSFLGIAKQFDRARMLEEYSKRFKKFGYNGDSLLGQFYKNTGIADAAITTINTVLSAIAAGVGAASAGSLVGAPIGLLVSAITSLISGILDASKQAVFEHIANQLADKIKAWENKYGKNYFENGYDARHSAFLEDSLKLFNELREKYKTENILSITQQGWDQRIGELAGITRNGDRIQSGKAYVDYLKKGEELAKHSDKFTKQILDPIKGNIDLSGIKGSTTLTFLNPLLTAGKEERKTRQSGKYEFITELKVKGRTDWKVKGVPNSNGVYDFSNLIQHAVTRDNKVLEARLIANLGAKDDYVFVGSGSTIVNAGDGYDVVDYSKGRTGALTIDGRNATKAGQYKVERDLSGTQVLQETVSKQETKRGKVTDLLEYRNYKLDYYYTNKGFKAHDELNSVEEIIGSTLRDKFYGSKFNDVFHGHDGDDLIYGYDGDDRLYGDNGNDEIHGGQGNDKLYGGAGNDRLFGEYGNNYLDGGEGDDHLEGGNGSDILRGGSGNDKLFGNQGDDLLDGGEGDDQLAGGEGNDIYVYRKEYGHHTITEHSGDKDKLSLANINLKDVSFERNGNDLLLKTNNRTAVTFKGWFSKPNSSAGLDEYQRKLLEYAPEKDRARLKRQFELQRGKVDKSLNNKVEEIIGKDGERITSQDIDNLFDKSGNKKTISPQELAGLIKNKGKSSSLMSSSRSSSMLTQKSGLSNDISRIISATSGFGSSGKALSASPLQTNNNFNSYANSLATTA
# B2: W1S4 peptide (human CD11a-based) (peptide)
# peptide: Ac-TGHCLP-NH2
# B3: W2S1 peptide (human CD11a-based) (peptide)
# peptide: Ac-VTLRGSNYTSKYLGMTLATDP-NH2
# B4: W2S2 peptide (human CD11a-based) (peptide)
# peptide: Ac-TDGSILACDPG-NH2
# B5: W2S3 peptide (human CD11a-based; identical in murine CD11a) (peptide)
# peptide: Ac-LSRTCDQNT-NH2
# B6: W2S4 peptide (human CD11a-based) (peptide)
# peptide: Ac-YLSGLCYLFRQNLQGPML-NH2
# Molecular target: B6
# Assay: SPR
row,Binder,KD relative to the KD of LtxA for the other peptides [fold]
1,B1,~2

# Molecular target: B1
# Assay: SPR
row,Binder,Kd [nM]
1,B2,~10
2,B3,~10
3,B4,~10
4,B5,~10
5,B6,~10
